According to the supplement of paper PMC9170038:

Tested on: MS2 coat protein
Test: apparent KD of MS2 coat protein; designed switch direction (-1 OFF switch, 1 ON switch): 1; higher = weaker reporter binding
Procedure, shortened: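 RNA switches sharing common flanks were transcribed by stalled E. coli RNA polymerase on Illumina chips. A doubling series of SNAP-549-labelled MS2 coat protein, from 0.7 or 1.5 nM to 3 µM, was applied in Tris-HCl pH 7.5 buffer with KCl, MgCl2, BSA, DTT, tRNA and Tween-20. Each step lasted 0.8–1.5 h at the bottom of the series and 10–20 min at the top. Normalised cluster fluorescence was curve-fitted, giving apparent KD as the per-design median over clusters.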

[1] = input ligand: microRNA oligo, concentration not stated
[2] = Eterna round: R95, input ligand: FMN 200 uM
[3] = Eterna round: R95, input ligand: microRNA oligo, concentration not stated
[4] = Eterna round: R95, input ligand: none

| Sequence | apparent KD of MS2 coat protein (input ligand: FMN 200 uM) | apparent KD of MS2 coat protein [1] | apparent KD of MS2 coat protein (input ligand: none) | apparent KD of MS2 coat protein [2] | apparent KD of MS2 coat protein [3] | apparent KD of MS2 coat protein [4] |
| --- | --- | --- | --- | --- | --- | --- |
| GGAUGAUAGACAGGAUAUUGAUUGUAAUUAGGUCAAGAAGGGUCUUUGAUUUAAACGACCAGUUACAUGAGGAUCACCCAUGUU [JR_SSNG1_Sub028] (Eterna round: R96, puzzle: Same State NG 1) | 0.0825 µM | 0.0659 µM | 0.201 µM | – | – | – |
| GGUCCAUCAUGAGGAUAUGGCACCUUAUUGGUGCCAGAAGGCAUGUAAAUUAUAAUAAAUACAUGAGGAUCACCCAUGUGGACC [Eli NG1ss - 98] (Eterna round: R96, puzzle: Same State NG 1) | 1.23 µM | 0.0802 µM | 0.407 µM | – | – | – |
| UGUUGUAUUACAGGAUAUCUAUUAGGUUUAUUUAGAGAAGGGUAUUCACAUGAGGAUCACCCAUGUAUAUACGAGGAAGUUGUG [JMF's solution 87] (Eterna round: R96, puzzle: Same State NG 1) | – | 0.0418 µM | – | – | – | – |
| CUGCAACAUGAGGAUCACCCAUGUAACCCGGUUACAGGAUAUGUGAUGGUGAUCGACAUGACAGAAGGGUGAUUGG [Indiinbi] (puzzle: Same State 1) | – | – | – | 0.0415 µM | 0.0215 µM | 0.0295 µM |
| AGGCUCAGACUAGGAUAUAUGCGAUCACAUGAGGAUCACCCAUGUCUCGAGCUUCGGCUCGAGGCAUAGAAGGAGUCUGAGCCA [SSNG2/4-D1] (Eterna round: R96, puzzle: Same State NG 2) | 0.0171 µM | 0.0308 µM | 0.057 µM | – | – | – |
| GUGUGUUGCGGGCAGGAUAUGUAUUUGAGUACAUGAGGAUCACCCAUGUGCGCCUGUUUCAGGCGACAGAAGGGCCUAUCGCGAC [JL-ss2-3.27 ViennaUCT mod] (puzzle: Same State 2) | – | – | – | – | 0.106 µM | – |
| AAAAGACAUGAGGAUCACCCAUGUCAAGACGUGGGAGGAUAUGCAUGGAAAACAUGCUGUGCAGAAGGCCCGUGUC [SS1 - 20] (Eterna round: R96, puzzle: Same State 1) | 0.0162 µM | 0.0166 µM | 0.024 µM | – | – | – |
| AGCUAGUACGAAGGAUAUACAAACAUGAGGAUCACCCAUGUAUACAUGGUUUAAUGAGACUACAUGUAGAAGGUCGUACUAGCA [SameState NG2 #13] (Eterna round: R96, puzzle: Same State NG 2) | 0.559 µM | 0.423 µM | 1.03 µM | – | – | – |
| UUUAGUUGCGGGCAGGAUAUGUAUUAAAAUACAUGAGGAUCACCCAUGUGAGGUCAUAAAGACCUGCAGAAGGGCCAAUCGCGAC [Laonerce - 17] (puzzle: Same State 2) | – | – | – | 0.0115 µM | 0.0868 µM | 0.0483 µM |
| GCUAGUAUAAUUGUCAACAUGAGGAUCACCCAUGUAUGUUGGCAGGAUAUCGUUUGCAAAGCAAACGAGAAGGGCUAAACUAGC [Mat - Same State NG 3 - JL Mod - D11] (Eterna round: R96, puzzle: Same State NG 3) | 0.0613 µM | 0.106 µM | 0.171 µM | – | – | – |
| UUGAAGAAUAUAGGAUAUUGAAUACAUAUGUUUAACAUGAGGAUCACCCAUGUGGGUUGCGGUAUCGAGAAGGAUAAUUACUAG [Mat - Same State NG 2 - JL mod - D12] (Eterna round: R96, puzzle: Same State NG 2) | 0.185 µM | 0.131 µM | 0.14 µM | – | – | – |
| GGCGGCCUGGGAGGAUAUCGGGCCCUUUGGGCCCGAGAAGGUCCGGAGCCUCUGACAUGAGGAUCACCCAUGUAGGCUGCUGCC [first try] (Eterna round: R96, puzzle: Same State NG 1) | 0.0454 µM | 0.186 µM | 0.154 µM | – | – | – |
| GUUACAUGAGGAUCACCCAUGUAUGUGUGGGAGUAAGUGUCUUAGGAUAUCUGUUAUUUAACUUAAGAGAAGGAAGAUUGUUGU [JMF's solution 43] (Eterna round: R96, puzzle: Same State NG 3) | 0.108 µM | 0.0654 µM | 0.105 µM | – | – | – |
| UGUUGUAUUACAGGAUAUCUAGAAUUUUUAUUUAGAGAAGGGUAUUCACAUGAGGAUCACCCAUGUAUAUACGAGGAAGUUGUG [JMF's solution 30] (Eterna round: R96, puzzle: Same State NG 1) | – | 0.0279 µM | – | – | – | – |
| CCGAUUUAUGGAGGAUAUGGAGCCUUAUUGGCUCCAGAAGGUCAAUACAUGAGGAUCACCCAUGUGUCGGCGGUCAAUAGACCG [Eli NG1ss - 72] (Eterna round: R96, puzzle: Same State NG 1) | 0.0617 µM | 0.0442 µM | 0.128 µM | – | – | – |
| ACAAGCUUUUUAGGAGAGAAAGGUGGGAAACAUGAGGAUCACCCAUGUAUGGUAGUGAAUAGUGGAACUCGUCUUAU [JR_SHM208A_Sub081] (puzzle: Sensor for hsa-mir-208a) | – | – | – | 0.4 µM | 0.104 µM | 0.462 µM |

| Sequence | apparent KD of MS2 coat protein (input ligand: FMN 200 uM) | apparent KD of MS2 coat protein [1] | apparent KD of MS2 coat protein (input ligand: none) | apparent KD of MS2 coat protein [2] | apparent KD of MS2 coat protein [3] | apparent KD of MS2 coat protein [4] |
| --- | --- | --- | --- | --- | --- | --- |
| UGUUGUAUUACAGGAUAUCUAUUAUUUUAAUUUAGAGAAGGGUAUUCACAUGAGGAUCACCCAUGUAUAUACGAGGAAGUUGUG [JMF's solution 21] (Eterna round: R96, puzzle: Same State NG 1) | – | 0.0384 µM | – | – | – | – |
| AACAAUCUAUCUGAGGAUAUCAUGAAAAAAACAUGAGGAUCACCCAUGUGCAGGAAAACUGCAUAUGAGAAGGCAGAUAGAUUGC [salish99_SS2_r3_004] (Eterna round: R96, puzzle: Same State 2) | – | 0.504 µM | – | – | – | – |
| UCGGGCGUACUUGCUGACAUGAGGAUCACCCAUGUGAUUGGGAAGGAUAUGGUUCCGUUUCGGUUCCAGAAGGUCCUGGGUGCU [salish99_SSNG3_r04_313] (Eterna round: R96, puzzle: Same State NG 3) | 0.482 µM | 0.459 µM | 0.37 µM | – | – | – |
| UUGAAGAAUUAAGGAUAUCGAGUCGUCAGAUUAAACAUGAGGAUCACCCAUGUGGGUUGCGGUAUCGAGAAGGUAAAUUACAAG [JL JR Sub099 mod 2] (Eterna round: R96, puzzle: Same State NG 2) | 0.0205 µM | 0.0272 µM | 0.0399 µM | – | – | – |
| CUGUGUUGCGGGCAGGAUAUGUAUUGGGAUACAUGAGGAUCACCCAUGUGCGGGUGUUUCACCCGACAGAAGGGCCAAUCGCGAC [JL-ss2-3.22 ViennaUCT mod] (puzzle: Same State 2) | – | – | – | 0.2 µM | 0.37 µM | 0.472 µM |
| GUACAUAUCAGAGGAUAUCACGUCGAUUAGACGUGAGAAGGCUGAUCACACAUGAAUAUUAAUACAUGAGGAUCACCCAUGUAC [SSNG1/13-A2] (Eterna round: R96, puzzle: Same State NG 1) | 0.0169 µM | 0.0285 µM | 0.0372 µM | – | – | – |
| GGAUGAUUGACAGGAUAUCAUUUGUAAAUUCGAUGAGAAGGGUCGAUUACUUACACGACGUGUUACAUGAGGAUCACCCAUGUU [SameState NG1 #5] (Eterna round: R96, puzzle: Same State NG 1) | 0.0537 µM | 0.116 µM | 0.148 µM | – | – | – |
| UGCCUGAGUCGAGGAUAUUAUGGAUCCUUUAAUACAUGAGGAUCACCCAUGUAAUUAAUUAUACAUGAGAAGGUGACUCAGGCU [SSNG2/11-B3] (Eterna round: R96, puzzle: Same State NG 2) | 0.0243 µM | 0.194 µM | 0.253 µM | – | – | – |
| CGACACACGGCAGGAUAUGCUUAGCAAAGCUAAGCAGAAGGGCCUCAUGUCGUGGAAACGUGACAUGAGGAUCACCCAUGUCGC [Omei SS(NG)1 C] (Eterna round: R96, puzzle: Same State NG 1) | 0.031 µM | 0.0146 µM | 0.0199 µM | – | – | – |
| AAAAGACAUGAGGAUCACCCAUGUGAAAACGUAGGAGGAUAUGUCGUGAAAAAAGACUUGACAGAAGGCCUGUGUC [SS1 - 34] (Eterna round: R96, puzzle: Same State 1) | – | 0.0889 µM | – | – | – | – |
| AAUUGUUCCUGAGGAUAUCAGUAGUUUGCUUUUUGAGAAGGCAGUACAUGAGGAUCACCCAUGUUGUGGUUUGAUAGAAUGAUA [JR_SSNG1_Sub005] (Eterna round: R96, puzzle: Same State NG 1) | 0.184 µM | 0.101 µM | 0.18 µM | – | – | – |
| UGGCUGGUGCUAGGAUAUCCAUGAGGAAUCCUCGUAGAAGGAGCACGACAUGAGGAUCACCCAUGUAGCCGUCCGUAGACGGCU [salish99_SSNG1_r04_008] (Eterna round: R96, puzzle: Same State NG 1) | 0.287 µM | 0.185 µM | 0.24 µM | – | – | – |
| GCUCGAUGAGCUGUCUACAUGAGGAUCACCCAUGUAGAUGGGCAGGAUAUUUACGUGCUUUGUGUAGAGAAGGGCCCAUCGAGC [SameState NG3 #77] (Eterna round: R96, puzzle: Same State NG 3) | 0.035 µM | 0.144 µM | 0.267 µM | – | – | – |
| CACAAUCUAUCUGAGGAUAUCAUGAAAAAAACAUGAGGAUCACCCAUGUGCAGGAAAACUGCAUAUGAGAAGGCAGAUAGAUUGA [salish99_SS2_r3_016] (puzzle: Same State 2) | – | – | – | 0.038 µM | 1.26 µM | 0.678 µM |
| AAACAUGAGCGAGGAUAUGCGGACGAUUACGCUGUAGAAGGCGCAUGUAAAACAACAUGAGGAUCACCCAUGUCAUGUACAUGA (Eterna round: R96, puzzle: Same State NG 1) | 0.0813 µM | 0.0504 µM | 0.0836 µM | – | – | – |
